{
  "source": "paper PMC6203815",
  "proteins": {"B1": {"name": "Pfs48/45 6C: S305A (protein)", "parent chain": "MMLYISAKKAQVAFILYIVLVLRIISGNNDFCKPSSLNSEISGFIGYKCNFSNEGVHNLKPDMRERRSIFCTIHSYFIYDKIRLIIPKKSSSPEFKILPEKCFQKVYTDYENRVETDISELGLIEYEIEENDTNPNYNERTITISPFSPKDIEFFCFCDNTEKVISSIEGRSAMVHVRVLKYPHNILFTNLTNDLFTYLPKTYNESNFVSNVLEVELNDGELFVLACELINKKCFQEGKEKALYKSNKIIYHKNLTIFKAPFYVTSKDVNTECTCKFKNNNYKIVLKPKYEKKVIHGCNFSSNVSSKHTFTDSLDISLVDDSAHISCNVHLSEPKYNHLVGLNCPGDIIPDCFFQVYQPESEELEPSNIVYLDSQINIGDIEYYEDAEGDDKIKLFGIVGSIPKTTSFTCICKKDKKSAYMTVTIDSAYYGFLAKTFIFLIVAILLYI"}},
  "test": "Ni-NTA recovery from HEK293, Coomassie SDS-PAGE",
  "conditions": "glycan lost; control: wild-type Pfs48/45 6C",
  "data": [
    {"protein": "B1", "values": [
      {"measurement": "expression_or_secretion", "value": "decreases"}
    ]}
  ]
}
